The values that follow come from article PMC3512392 (The EMBO Journal, 2012).

The data set concerns the molecule itself. Nature of the data set: crystal structure.

B1: SNX1 (301–522) (domain or fragment)
chain: KMNESDIWFEEKLQEVECEEQRLRKLHAVVETLVNHRKELALNTAQFAKSLAMLGSSEDNTALSRALSQLAEVEEKIEQLHQEQANNDFFLLAELLSDYIRLLAIVRAAFDQRMKTWQRWQDAQATLQKKREAEARLLWANKPDKLQQAKDEILEWESRVTQYERDFERISTVVRKEVIRFEKEKSKDFKNHVIKYLETLLYSQQQLAKYWEAFLPEAKAIS
B1: the binding result is “binds”.
